Measured values from the supplement of paper PMC10567573.
± gives the standard deviation.

Assay: protein stability index of a GFP-peptide fusion (GPS, HEK-293T) (PSI 1-6); higher = more stable
Conditions: c terminus: a fixed tail appended
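Further: 24-mer peptide tiles fused after GFP, lentivirally expressed, FACS-sorted into six equal bins by GFP/DsRed ratio, decoded by Illumina sequencing, PSI is the read-weighted mean bin number.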

**Q.** Which protein stability index (treatment: DMSO) does the source give for PTPIFAGGANDRWVRSVSFSHDGL [WSB1] here?
**A.** The protein stability index was 2.61 ± 0.19.

**Q.** What about the protein stability index (treatment: MLN4924 1 uM, 8 h) of the same sequence?
**A.** The protein stability index was 2.99 ± 0.64.

**Q.** For KLRRQVIQVVLNGMESYQEVTVQR [ZER1], which protein stability index (treatment: DMSO) is on record?
**A.** Its protein stability index is 2 ± 0.19.

**Q.** What about the protein stability index (treatment: MLN4924 1 uM, 8 h) of the same sequence?
**A.** Its protein stability index is 2.28 ± 0.57.

**Q.** Which results are given for WVLEPVLEGWRPDQLYRRKKDNHA [ELOA2]?
**A.** protein stability index (treatment: DMSO): 2.51 ± 0.31; protein stability index (treatment: MLN4924 1 uM, 8 h): 3.34 ± 0.14

**Q.** Which protein stability index (treatment: DMSO) does the source give for LNRDEEIIKQLQKGVQQKRPSEAQ [DENND6A] here?
**A.** Its protein stability index is 4.94 ± 0.097.

**Q.** What about the protein stability index (treatment: MLN4924 1 uM, 8 h) of the same sequence?
**A.** Its protein stability index is 4.83 ± 0.31.
